Reference: PMC7691350, “Integron gene cassettes harboring novel variants of D-alanine-D-alanine ligase confer high-level resistance to D-cycloserine” (Scientific Reports, 2020)
Read-outs that look alike come from different tables or passages of the source.

Legend:
[1] = system: Ddl6; assay: PK/LDH-coupled spectrophotometric assay, […] nm; assay type: biochemical; conditions: 10 mM MgCl2, 10 mM KCl, 100 mM HEPES pH 7.5, 37 °C
[2] = system: C[C@@H](N)C(=O)O; assay: purified protein; conditions: second D-alanine binding, 500 µM ATP, 10 mM MgCl2, 10 mM KCl, 100 mM HEPES pH 7.5, 37 °C
[3] = system: Nc1ncnc2c1ncn2[C@@H]1O[C@H](COP(=O)(O)OP(=O)(O)OP(=O)(O)O)[C@@H](O)[C@H]1O; assay: purified protein; conditions: 100 mM D-alanine, ATP 5-320 µM, 10 mM MgCl2, 10 mM KCl, 100 mM HEPES pH 7.5, 37 °C

Row | Compound | Km ([1]; read-out: Km, ATP, 100 mM D-alanine, ATP 5-320 µM) [µM] | Km ([1]; second D-alanine binding, 500 µM ATP, read-out: Km, D-ala2) [µM] | Km [2] [mM] | kcat [2] [s⁻¹] | kcat/Km [2] [M⁻¹ s⁻¹] | Km [3] [µM]
1 | Nc1ncnc2c1ncn2[C@@H]1O[C@H](COP(=O)(O)OP(=O)(O)OP(=O)(O)O)[C@@H](O)[C@H]1O [ATP] | 55 |  |  |  |  | 
2 | C[C@@H](N)C(=O)O [D-alanine] |  | 390 |  |  |  | 
3 | DdlAEc (Escherichia coli K-12) |  |  | 0.52 | 6.43 | 12500 | 48.99
4 | DdlTd (Treponema denticola ATCC 35405) |  |  | 0.45 | 3.74 | 8290 | 19.08
